# From patent publication US20260216242A1 (ALMAC DISCOVERY, published 2026)
# T1: human ALPL on CHO cells (human, UniProt P05186 18-501)
# T1 construct: whole, on cells; also called CHO-ALPL
# T1 sequence (looked up): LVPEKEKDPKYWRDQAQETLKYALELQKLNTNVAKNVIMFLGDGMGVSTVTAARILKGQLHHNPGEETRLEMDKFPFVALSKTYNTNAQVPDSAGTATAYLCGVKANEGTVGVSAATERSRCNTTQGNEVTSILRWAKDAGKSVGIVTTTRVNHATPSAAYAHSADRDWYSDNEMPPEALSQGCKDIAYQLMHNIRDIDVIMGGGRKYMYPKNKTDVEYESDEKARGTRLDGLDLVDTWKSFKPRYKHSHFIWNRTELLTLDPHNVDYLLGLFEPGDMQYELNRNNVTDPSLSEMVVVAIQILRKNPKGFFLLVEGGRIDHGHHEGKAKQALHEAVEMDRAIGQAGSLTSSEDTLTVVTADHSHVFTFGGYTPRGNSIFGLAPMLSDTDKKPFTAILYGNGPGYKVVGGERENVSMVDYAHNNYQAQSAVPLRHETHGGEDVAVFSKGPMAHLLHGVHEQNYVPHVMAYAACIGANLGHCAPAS
# T2: Human ALPPL2 (leucine zipper) (human)
# T2 construct: Whole entry: fused with a cysteine stabilised leucine zipper and His tag; also called hALPPL2
# T2 chain: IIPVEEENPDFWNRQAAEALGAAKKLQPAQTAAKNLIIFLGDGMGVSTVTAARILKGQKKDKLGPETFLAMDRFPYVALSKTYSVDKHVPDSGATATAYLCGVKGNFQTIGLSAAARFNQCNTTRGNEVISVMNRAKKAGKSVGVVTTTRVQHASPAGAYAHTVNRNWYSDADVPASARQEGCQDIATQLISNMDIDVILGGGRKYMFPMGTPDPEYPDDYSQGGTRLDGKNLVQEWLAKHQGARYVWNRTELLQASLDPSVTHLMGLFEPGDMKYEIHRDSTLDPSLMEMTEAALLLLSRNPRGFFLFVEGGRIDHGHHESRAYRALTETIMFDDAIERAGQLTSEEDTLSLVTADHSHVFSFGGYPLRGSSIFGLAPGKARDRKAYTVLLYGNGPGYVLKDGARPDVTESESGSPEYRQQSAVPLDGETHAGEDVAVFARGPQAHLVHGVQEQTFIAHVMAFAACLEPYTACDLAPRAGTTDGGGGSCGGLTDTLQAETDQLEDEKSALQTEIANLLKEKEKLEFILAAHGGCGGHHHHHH
# T3: Human ALPL (leucine zipper) (human)
# T3 construct: Whole entry: fused with a cysteine stabilised leucine zipper and His tag; also called hALPL
# T3 chain: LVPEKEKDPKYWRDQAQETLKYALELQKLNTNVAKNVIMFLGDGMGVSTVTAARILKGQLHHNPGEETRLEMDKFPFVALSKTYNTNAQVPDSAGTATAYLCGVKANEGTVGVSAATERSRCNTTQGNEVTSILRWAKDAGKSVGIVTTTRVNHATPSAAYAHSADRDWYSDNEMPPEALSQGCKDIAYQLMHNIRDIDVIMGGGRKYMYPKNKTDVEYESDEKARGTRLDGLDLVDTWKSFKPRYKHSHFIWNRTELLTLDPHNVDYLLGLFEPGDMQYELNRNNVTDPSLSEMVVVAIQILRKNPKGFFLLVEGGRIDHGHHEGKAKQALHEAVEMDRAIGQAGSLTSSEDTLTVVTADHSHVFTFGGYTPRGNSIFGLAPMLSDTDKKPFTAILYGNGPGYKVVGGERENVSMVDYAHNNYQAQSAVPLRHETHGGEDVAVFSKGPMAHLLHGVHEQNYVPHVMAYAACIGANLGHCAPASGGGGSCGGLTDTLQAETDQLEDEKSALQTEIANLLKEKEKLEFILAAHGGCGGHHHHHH
# How the values were obtained:
# human ALPL on CHO cells = target: T1, human ALPL on CHO cells; experiment: flow cytometry, CHO cells stably expressing human ALPL; His6-tagged VHH detected with anti-His tag Ab and FITC anti-mouse Ab
# Description: C-terminal His tagged VHH proteins were assessed for ALPP, ALPPL2, ALPI and ALPL cell-surface binding by flow cytometry. Binders encompassing different epitope bins were screened on CHO cells stably expressing ALPP, ALPPL2, ALPI or ALPL. High levels of cell-surface proteins expression were confirmed for each of the cell-lines by flow cytometry.
# Cell surface binding of test agents to hALPP isoforms was characterized in four CHO-ALPP isoform stably transfected cell lines (CHO-ALPP, CHO-ALPPL2, CHO-ALPI and CHO-ALPL) and the resulting KDapp values determined. Adherent cells were detached from tissue culture flasks by incubating with 0.1% EDTA/PBS solution at 37° C. for ~10 minutes or until cells detached easily. Cells were re-suspended in ice-cold PBS/2% FCS in 15 ml tubes and centrifuged at 1700 rpm for 5 mins at 4° C. Supernatant was removed and the cell pellet re-suspended in PBS/2% FCS. […] Cells were incubated with 100 μl of test agents at a range of concentrations, plus controls for 1 hr on ice. The sample plate was centrifuged at 1700 rpm for 5 mins at 4° C. The supernatant was removed, and a wash performed by re-suspending the cell pellets in 0.25 mL of ice-cold PBS/2% FCS using a multichannel pipette. Samples were again centrifuged at 1700 rpm for 5 min at 4° C. Supernatant was removed and two further washes performed as described. After the final wash and centrifugation step, excess liquid was removed by blotting the plate on tissue paper. Binding of VHH (His6 tagged) agents was determined by adding 100 μl of anti-x6His tag Ab (Abcam) per cell pellet sample as appropriate and incubating on ice for 30 mins. Wash steps were performed as described previously. Fitc-anti-mouse antibody (ThermoFisher) was used to detect binding of the VHH (His6 tagged) agents by incubating with the appropriate samples for 30 min on ice in the dark. Wash steps were performed as described previously. All cell pellets were finally re-suspended in […] of ice-cold PBS/2% FCS and left on ice in the dark prior to analysis on a Merck-Millipore Guava EasyCyte HT or Thermo Fisher Attune N×T flow cytometer.
# [1] = target: T2, Human ALPPL2 (leucine zipper); experiment: BLI, antigen immobilised
# Description: (§1) Binding kinetics were determined using the Biolayer Interferometry (BLI) Octet K2 system (Sartorius). […] All assays were conducted in PBS with a plate temperature of 25° C. Ka (M⁻¹s⁻¹), Kd (s⁻¹) and KD (nM) values were determined using Octet Data Analysis High Throughput software (ForteBio) for Biolayer Interferometry.
# [2] = target: T3, Human ALPL (leucine zipper); experiment: BLI, antigen immobilised
# Description: as §1
binder,measurement,setting,value
"A06 His (VHH, not shown: small tags and cut ends, also called #250) VHH: QVHLVESGGGLVQAGGSLRLSCAASGRTFLSMGWFRQAPGKEREFVAAISWTGGSTGYADSVKGRFTISRESDKETMYLQMNSLKPEDTAVYYCAARGDVYYGGDDATRYKYWGQGTQVTVSS",binding result,human ALPL on CHO cells,no binding (tested: 350 nM)
same,Kd,[1],5.04 nM
same,koff,[1],0.000672 s⁻¹
same,kon,[1],133000 M⁻¹ s⁻¹
same,binding result,[2],no binding
"C07 His (VHH, not shown: small tags and cut ends, also called #258) VHH: QVQLVESGGGLVQAGESLRLACAASGTIFSGNAVGWYRQAPEKQREWVSSITDYGDTDYAEAVKGRFTISRDNAKNTVYLQMNSLKPEDTAVYYCYVYQRGESEEYWGQGTQVTVSS",binding result,human ALPL on CHO cells,no binding (tested: 350 nM)
same,Kd,[1],0.61 nM
same,koff,[1],0.000288 s⁻¹
same,kon,[1],471000 M⁻¹ s⁻¹
same,binding result,[2],no binding
"D04 His (VHH, not shown: small tags and cut ends) VHH: QVQLVESGGGLVQPGGSLRLSCAASESTFSINVMGWYRQAPGKQRELVATITSGDITNYADSVKGRFTISRDNAENTVYLRTNSLKPEDTAVYYCNARGEYHSGNEYDYWGQGTQVTVSS",binding result,human ALPL on CHO cells,no binding (tested: 350 nM)
same,Kd,[1],2.92 nM
same,binding result,[2],no binding
"D10 His (VHH, not shown: small tags and cut ends) VHH: QVQLVESGGGLVQPGGSLRLSCAASGSIFSVNTMGWYRQAPGKQRDLVAVATSGGTIHYADSVKGRFTISRDNAKNTVYLQMNSLKPEDTAVYYCNLVVPYGMIAGDHDYWGQGTKVTVSS",binding result,human ALPL on CHO cells,no binding (tested: 350 nM)
same,Kd,[1],1.22 nM
same,koff,[1],0.0028 s⁻¹
same,kon,[1],2.3e+06 M⁻¹ s⁻¹
same,binding result,[2],no binding
"A05 His (VHH, not shown: small tags and cut ends, also called #249) VHH: QVQLVESGGGLVQAGASLTLSCAASGFTFNTRSIVWFRQAPGKEREAVSCISKVAGSTYYGDSVQGRFSSSTDNAKNTVSLQMNSLKPEDTAVYTCAASFAPNCYGWSVAANMEYWGEGTMVTVSS",binding result,human ALPL on CHO cells,no binding (tested: 350 nM)
same,binding result,[2],no binding
"E06 His (VHH, not shown: small tags and cut ends) VHH: QVHLVESGGGLVQAGGSLRLSCAASRRSFSEYAMGWFRQAPGKEREFVAAIGWSGVIEYADSVKGRFTISRDNAKDTVYLQMNSLKPEDTAVYYCAAGLGIRVVSQTPAYWGQGTQVTVSS",binding result,human ALPL on CHO cells,no binding (tested: 350 nM)
same,Kd,[1],0.0834 nM
same,koff,[1],8.75e-05 s⁻¹
same,kon,[1],1.05e+06 M⁻¹ s⁻¹
same,binding result,[2],no binding
"E10 His (VHH, not shown: small tags and cut ends, also called #265) VHH: QVQLVESGGGLVQAGGSLRLSCAVSGRALSDYNIGWFRQAPGKEREFVARKTWDGSSTRYDDSVKGRFTVSIEDAKNTAYLQMSSLKTEDTAVYYCAAGRYSRARGWEYDYWGQGTQVTVSS",binding result,human ALPL on CHO cells,no binding (tested: 350 nM)
same,Kd,[1],0.0862 nM
same,koff,[1],0.000141 s⁻¹
same,kon,[1],1.64e+06 M⁻¹ s⁻¹
same,binding result,[2],no binding
"F05 His (VHH, not shown: small tags and cut ends) VHH: QVQLVESGGGLVQAGGSLRLSCAASGRAFGDYNIGWFRQAPGKEREFVARRTWDGSSTRYDDSVKGRFTVSIDNAKNTAYLQMNSLKTEDTAVYYCAAGRYSRVRGWEYDYWGQGTQVTVSS",binding result,human ALPL on CHO cells,no binding (tested: 350 nM)
same,Kd,[1],0.0954 nM
same,koff,[1],0.000356 s⁻¹
same,kon,[1],3.74e+06 M⁻¹ s⁻¹
same,binding result,[2],no binding
"F08 His (VHH, not shown: small tags and cut ends, also called #269) VHH: QVQLVESGGGSVQAGGSLRLSCAASGPSLSNYAMGWFRQAPGKEREFVAGISWGGGRTSYTDSVKGRFTISRDNAKNTVYLQMNNLKPEDTGVYYCAGRYGRGRNVEYEYDYWGQGTQVTVSS",binding result,human ALPL on CHO cells,no binding (tested: 350 nM)
same,Kd,[1],< 0.01 nM
same,koff,[1],< 1e-07 s⁻¹
same,kon,[1],684000 M⁻¹ s⁻¹
same,binding result,[2],no binding
